From patent US20040058393A1 (published 2004)
Numbering of substitutions follows the chain as printed.

T1: human TPO receptor (MPL) expressed on Ba/F3 cells (human, UniProt P40238 26-635)
T1 sequence (looked up): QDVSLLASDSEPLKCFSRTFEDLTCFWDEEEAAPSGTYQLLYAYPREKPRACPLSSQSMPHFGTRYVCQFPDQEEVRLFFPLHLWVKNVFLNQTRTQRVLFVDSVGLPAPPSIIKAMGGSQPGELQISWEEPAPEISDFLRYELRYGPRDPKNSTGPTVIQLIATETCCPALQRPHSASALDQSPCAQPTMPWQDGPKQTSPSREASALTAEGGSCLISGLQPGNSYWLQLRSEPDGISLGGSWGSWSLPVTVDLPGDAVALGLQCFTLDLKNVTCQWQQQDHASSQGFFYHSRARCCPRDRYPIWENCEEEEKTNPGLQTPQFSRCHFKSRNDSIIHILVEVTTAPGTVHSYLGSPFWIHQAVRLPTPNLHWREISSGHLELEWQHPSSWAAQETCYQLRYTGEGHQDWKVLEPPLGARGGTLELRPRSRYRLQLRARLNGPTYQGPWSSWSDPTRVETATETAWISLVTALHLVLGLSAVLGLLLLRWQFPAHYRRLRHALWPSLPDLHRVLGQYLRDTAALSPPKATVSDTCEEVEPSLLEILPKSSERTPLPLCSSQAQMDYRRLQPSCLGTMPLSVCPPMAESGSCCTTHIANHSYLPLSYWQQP

B1: reconstructed 12B5 single chain Fv (sc12B5), culture supernatant of COS-7 cells (scFv)
scFv: QVQLVQSGGGLVRPGGSLSLSCAVSGITLRTYGMHWVRQAPGKGLEWVAGISFDGRSEYYADSVQGRFTISRDSSKNTLYLQMNSLRAEDTAVYYCARGAHYGFDIWGQGTMVTVSSGGGGSGGGGSGGGGSDIQMTQSPSTLSASIGDRVTITCRASEGIYHWLAWYQQKPGKAPKLLIYKASSLASGAPSRFSGSGSGTDFTLTISSLQPDDFATYYCQQYSNYPLTFGGGTKLEIKDYKDDDDK
B2: sc12B5 monomer (scFv)
scFv: B1 scFv
B3: sc12B5 dimer (scFv)
scFv: B1 scFv
B4: MABL2-scFv <HL-0> (scFv)
scFv: QVQLQQSGPELVKPGASVKMSCKASGYTFANHVIHWVKQKPGQGLEWIGYIYPYNDGTKYNEKFKDKATLTSDKSSTTAYMDLSSLASEDSAVYYCARGGYYTYDDWGQGTTLTVSSDVVMTQSPLSLPVSLGDQASISCRSSQSLVHSNGKTYLHWYLQKPGQSPKLLIYKVSNRFSGVPDRFSGSGSVTDFTLMISRVEAEDLGVYFCSQSTHVPYTFGGGTKLEIKDYKDDDDK
notes: COS7 culture supernatant; also called CF2HL-0/pCOS1
B5: reconstructed single chain Fv of antibody MABL-2 (pCHOM2, COS7 culture supernatant) (scFv)
scFv: QVQLQQSGPELVKPGASVKMSCKASGYTFANHVIHWVKQKPGQGLEWIGYIYPYNDGTKYNEKFKDKATLTSDKSSTTAYMDLSSLASEDSAVYYCARGGYYTYDDWGQGTTLTVSSGGGGSGGGGSGGGGSDVVMTQSPLSLPVSLGDQASISCRSSQSLVHSNGKTYLHWYLQKPGQSPKLLIYKVSNRFSGVPDRFSGSGSVTDFTLMISRVEAEDLGVYFCSQSTHVPYTFGGGTKLEIKDYKDDDDK
notes: Unpurified COS7 supernatant; also called MABL2-scFv; MABL2-scFv/COS7
B6: MABL2-scFv <LH-0> (scFv)
scFv: DVVMTQSPLSLPVSLGDQASISCRSSQSLVHSNGKTYLHWYLQKPGQSPKLLIYKVSNRFSGVPDRFSGSGSVTDFTLMISRVEAEDLGVYFCSQSTHVPYTFGGGTKLEIKQVQLQQSGPELVKPGASVKMSCKASGYTFANHVIHWVKQKPGQGLEWIGYIYPYNDGTKYNEKFKDKATLTSDKSSTTAYMDLSSLASEDSAVYYCARGGYYTYDDWGQGTTLTVSSDYKDDDDK
notes: COS7 culture supernatant; also called CF2LH-0/pCOS1
B7: chimera MABL-1 antibody (antibody, V domains shown)
VH: QVQLQQSGPDLVKPGASVKMSCKASGYTFVNHVMHWVKQKPGQGLEWIGYIYPYNDGTKYNEKFKGKATLTSEKSSSAAYMELSSLASEDSAVYYCARGGYYSYDDWGQGTTLTVSS
VL: DVVMTQTPLSLPVSLGDQASISCRSSQSLLHSKGNTYLQWYLQKPGQSPKLLIYKVSNRFSGVPDRFSGSGSGTDFTLKISRVEAEDLGVYFCSQSTHVPYTSGGGTKLEIK
notes: Mouse V regions cloned into HEF-gamma and HEF-kappa vectors with human C regions; COS7 culture supernatant
B8: chimera MABL-2 antibody (antibody, V domains shown)
VH: B7 VH with D10E, V30A, M34I, G66D, E73D, S77T, A78T, E82D, S103T
VL: B7 VL with T7S, L30V, K33N, N35K, Q39H, G73V, K79M, S103F
notes: as for B7
B9: antibody 12B5 (IgG) (antibody, V domains shown)
VH: QVQLVQSGGGLVRPGGSLSLSCAVSGITLRTYGMHWVRQAPGKGLEWVAGISFDGRSEYYADSVQGRFTISRDSSKNTLYLQMNSLRAEDTAVYYCARGAHYGFDIWGQGTMVTVSS
VL: DIQMTQSPSTLSASIGDRVTITCRASEGIYHWLAWYQQKPGKAPKLLIYKASSLASGAPSRFSGSGSGTDFTLTISSLQPDDFATYYCQQYSNYPLTFGGGTKLEIK
B10: 12B5Fab (Fab, V domains shown)
VH: B9 VH
VL: B9 VL
B11: antibody MABL-2 sc(Fv)2 (scFv)
scFv: QVQLQQSGPELVKPGASVKMSCKASGYTFANHVIHWVKQKPGQGLEWIGYIYPYNDGTKYNEKFKDKATLTSDKSSTTAYMDLSSLASEDSAVYYCARGGYYTYDDWGQGTTLTVSSGGGGSGGGGSGGGGSDVVMTQSPLSLPVSLGDQASISCRSSQSLVHSNGKTYLHWYLQKPGQSPKLLIYKVSNRFSGVPDRFSGSGSVTDFTLMISRVEAEDLGVYFCSQSTHVPYTFGGGTKLEIKGGGGSGGGGSGGGGSVDSQVQLQQSGPELVKPGASVKMSCKASGYTFANHVIHWVKQKPGQGLEWIGYIYPYNDGTKYNEKFKDKATLTSDKSSTTAYMDLSSLASEDSAVYYCARGGYYTYDDWGQGTTLTVSSGGGGSGGGGSGGGGSDVVMTQSPLSLPVSLGDQASISCRSSQSLVHSNGKTYLHWYLQKPGQSPKLLIYKVSNRFSGVPDRFSGSGSVTDFTLMISRVEAEDLGVYFCSQSTHVPYTFGGGTKLEIKDYKDDDDK
notes: Single chain bivalent antibody; also called pCHOM2(Fv)2

Key:
[1] = target: T1, human TPO receptor (MPL) expressed on …; assay: cell-based or functional assay
[2] = target: T2, human Integrin Associated Protein (IAP) expressed on mouse leukemia cell line L1210 (human, UniProt Q08722 19-323); assay: flow cytometry, COS7 supernatant on hIAP/L1210 cells, anti-FLAG and FITC anti-mouse IgG
T2 construct: whole, on cells; also called human IAP; hIAP/L1210
T2 sequence (Q08722 19-323): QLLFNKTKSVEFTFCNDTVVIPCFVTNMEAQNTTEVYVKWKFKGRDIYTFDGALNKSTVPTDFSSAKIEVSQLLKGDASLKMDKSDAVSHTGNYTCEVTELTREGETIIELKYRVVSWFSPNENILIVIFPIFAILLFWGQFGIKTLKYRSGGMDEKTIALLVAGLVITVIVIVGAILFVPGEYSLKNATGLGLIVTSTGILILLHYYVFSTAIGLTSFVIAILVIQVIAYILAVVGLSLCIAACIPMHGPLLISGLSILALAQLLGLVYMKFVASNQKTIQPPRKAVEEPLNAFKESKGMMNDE
Description: Flow cytometry was performed using the aforementioned COS7 cells culture supernatant to measure the binding to the antigen. The culture supernatant of the COS7 cells expressing the reconstructed single chain Fv of antibody MABL-2 or the culture supernatant of COS7 cells transformed with pCHO1 vector as a control was added to 2×10⁵ cells of the mouse leukemia cell line L1210 expressing human Integrin Associated Protein (IAP) or the cell line L1210 transformed with pCOS1 as a control. After incubating on ice and washing, the mouse anti-FLAG antibody (SIGMA) was added. Then the cells were incubated and washed. Then, the FITC labeled anti-mouse IgG antibody (BECTON DICKINSON) was added thereto and the cells were incubated and washed again. Subsequently, the fluorescence intensity was measured using the FACScan apparatus (BECTON DICKINSON).
Flow cytometry was performed using the culture supernatants of COS7 cells prepared in Example 6.3 (1) to measure the binding of the MABL2-scFVs and sc(Fv)₂ to human Integrin Associated Protein (IAP) antigen. The culture supernatants to be tested or a culture supernatant of COS7 cells as a control was added to 2×10⁵ cells of the mouse leukemia cell line L1210 expressing human IAP. After incubating on ice and washing, 10 μg/mL of the mouse anti-FLAG antibody (SIGMA) was added and then the cells were incubated and washed. Then, the FITC labeled anti-mouse IgG antibody (BECTON DICKINSON) was added thereto and the cells were incubated and washed again. The fluorescence intensity was measured using the FACScan apparatus (BECTON DICKINSON). […] (see FIGS. 40a and 40b).

[3] = target: T3, secretion-type human IAP antigen (human, UniProt Q08722 19-142, limits assumed); assay: competitive ELISA on captured secretion-type human IAP; competitor biotinized MABL-2
T3 construct: also called human IAP antigen (soluble, COS7 supernatant)
T3 sequence (Q08722 other isoform, or with tags, fused parts or gaps limits assumed): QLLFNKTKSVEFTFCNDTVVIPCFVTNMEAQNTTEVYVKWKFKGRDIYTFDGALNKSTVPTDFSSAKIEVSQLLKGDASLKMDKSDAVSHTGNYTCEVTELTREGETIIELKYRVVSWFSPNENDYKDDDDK
Description: The binding activity of the reconstructed single chain Fv of antibody MABL-2 was measured based on the inhibiting activity against the binding of mouse monoclonal antibodies to the antigen.
The anti-FLAG antibody adjusted to 1 μg/ml was added to each well on 96-well plate and incubated at 37° C. for 2 hours. After washing, blocking was performed with 1% BSA-PBS. After incubating and washing at a room temperature, the culture supernatant of COS7 cells into which the secretion-type human IAP antigen gene (SEQ ID No. 26) had been introduced was diluted with PBS into twofold volume and added to each well. After incubating and washing at a room temperature, a mixture of 50 μl of the biotinized MABL-2 antibody adjusted to 100 ng/ml and 50 μl of sequentially diluted supernatant of the COS7 cells expressing the reconstructed single chain Fv of antibody MABL-2 were added into each well. After incubating and washing at a room temperature, the alkaline phosphatase-conjugated streptoavidin (Zymed) was added into each well. After incubating and washing at a room temperature, the substrate solution (SIGMA) was added and absorbance of the reaction mixture in each well was measured at 405 nm.

[4] = target: T2, human Integrin Associated Protein (IAP) …; assay: flow cytometry, COS7 supernatant on hIAP/L1210 cells, FITC anti-human IgG
Description: Flow cytometry was performed using the aforementioned culture supernatant of COS7 cells to measure binding to the antigen. The culture supernatant of the COS7 cells expressing the chimera MABL-1 antibody or the COS7 cells expressing the chimera MABL-2 antibody, or human IgG antibody (SIGMA) as a control was added to 4×10⁵ cells of mouse leukemia cell line L1210 expressing human IAP and incubated on ice. After washing, the FITC-labeled anti-human IgG antibody (Cappel) was added thereto. After incubating and washing, the fluorescence intensity thereof was measured using the FACScan apparatus (BECTON DICKINSON).

Binder | ED50, TPO-like agonist activity (proliferation of BaF/mpl cells, WST-8) [1] [nM] | binding result [2] | also measured
B1 | 75 | – | –
B2 | 4440 | – | –
B3 | 10.1 | – | fold agonist activity against monovalent sc12B5 [1]: ~400 fold
B4 | – | binds | –
B5 | – | binds | binding result [3]: binds
B6 | – | binds | –
B7 | – | – | binding result [4]: binds
B8 | – | – | binding result [4]: binds
B9 | 29 | – | –
B10 | 34700 | – | –
B11 | – | binds | –
